From patent US20200113821A1 come the findings set out here.

This assay addresses c-Kit (CD117; mast/stem cell growth factor receptor) on CD117+ bone marrow cells of β-globin/GFP transgenic mice (mouse) (UniProt P05532). Description: cell-based or functional assay.
Chain of UniProt P05532 (P05532 25-979): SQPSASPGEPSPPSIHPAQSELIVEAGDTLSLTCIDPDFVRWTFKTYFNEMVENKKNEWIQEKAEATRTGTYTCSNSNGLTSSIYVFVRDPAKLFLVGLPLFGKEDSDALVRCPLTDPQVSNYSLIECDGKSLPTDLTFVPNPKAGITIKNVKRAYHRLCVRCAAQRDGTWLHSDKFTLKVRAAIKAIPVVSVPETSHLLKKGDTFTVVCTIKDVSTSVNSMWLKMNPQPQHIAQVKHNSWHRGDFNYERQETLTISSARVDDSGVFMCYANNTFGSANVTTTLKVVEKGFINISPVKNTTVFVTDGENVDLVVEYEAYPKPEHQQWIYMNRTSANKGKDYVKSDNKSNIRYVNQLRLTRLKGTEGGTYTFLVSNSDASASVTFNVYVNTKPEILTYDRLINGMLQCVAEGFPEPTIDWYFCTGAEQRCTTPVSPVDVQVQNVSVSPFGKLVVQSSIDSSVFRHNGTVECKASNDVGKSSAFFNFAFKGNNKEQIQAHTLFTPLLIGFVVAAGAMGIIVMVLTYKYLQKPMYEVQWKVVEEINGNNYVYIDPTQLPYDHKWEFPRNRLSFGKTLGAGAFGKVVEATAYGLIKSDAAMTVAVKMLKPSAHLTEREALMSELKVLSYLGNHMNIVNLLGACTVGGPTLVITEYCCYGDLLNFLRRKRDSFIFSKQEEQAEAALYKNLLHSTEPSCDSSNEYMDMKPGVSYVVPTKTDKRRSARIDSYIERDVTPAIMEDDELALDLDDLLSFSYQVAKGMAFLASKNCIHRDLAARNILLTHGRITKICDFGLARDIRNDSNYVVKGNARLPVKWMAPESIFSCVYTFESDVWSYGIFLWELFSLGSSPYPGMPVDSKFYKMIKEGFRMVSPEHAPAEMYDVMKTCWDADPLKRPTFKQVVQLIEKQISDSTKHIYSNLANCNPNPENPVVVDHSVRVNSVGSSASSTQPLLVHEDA

In the case of “Recombinant murine SCF (stem cell factor), catalog #250-03, PeproTech (from UniProt P20826 26-189) (ligand)”, the HDR activity (recombination between reporter gene constructs) in CD117+ cells stood at 2 fold and the γtcPNA4/donor DNA-mediated gene editing (% GFP expressing CD117+ cells, flow cytometry) was 15%.
